Reference: patent US20100222258A1 (KABUSHIKI KAISHA HAYASHIBARA SEIBUTSU KAGAKU KENKYUJO, published 2010)
Numbering of substitutions follows the chain as printed. One block for each binder: values may come before it.

Legend:
[1] = biological target: T1, TNF-R2 (a protein having the amino acid sequence, Accession No. M55994 registered at GENBANK) (UniProt P20333 23-257, limits assumed); experiment: SPR (BIACORE 2000), receptor on sensor tip; grade 4 = two times or more that of recombinant TNF-α
T1 construct: also called TNF receptor with 75 kilo daltons
T1 sequence (looked up): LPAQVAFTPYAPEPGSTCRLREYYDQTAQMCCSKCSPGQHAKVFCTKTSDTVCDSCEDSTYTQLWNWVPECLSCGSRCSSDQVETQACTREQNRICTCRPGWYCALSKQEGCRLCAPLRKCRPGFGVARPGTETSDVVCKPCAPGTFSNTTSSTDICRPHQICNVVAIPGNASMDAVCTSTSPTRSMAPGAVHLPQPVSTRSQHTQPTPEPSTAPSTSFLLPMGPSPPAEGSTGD
From the text: (§1) Using the above detector based on surface plasmon resonance effect again, the resulting clones binding to TNF-R1 (or TNF-R2) were subjected to the remaining sensor tip conjugated with TNF-R2 (or TNF-R1) to measure receptor binding affinity and select clones having a variation of receptor binding affinity. […] The resulting DNAs were digested with restrict enzymes NdeI and BamHI to obtain DNA fragments. The resulting DNA fragments were introduced into a plasmid vector containing T7 promoter region, T7 terminator region, ampicillin resistant gene region and ColE1/Ori region (product name “pET-3a”, manufactured by “Novagen®” (EMD Biosciences, Inc.)) at the position of the above restriction sites. The resulting plasmid was introduced into E. coli BL21DE3 strain to obtain a transformed E. coli for producing the TNF mutant proteins. The obtained transformed E. coli was cultured according to usual method and centrifuged to collect E. coli pellet. The resulting pellet was washed twice with TES buffer (pH 8.0) (20 mM Tris-HCl, 10 mM ethylene diamine tetraacetic acid and 0.5 M sodium chloride) and admixed with TES buffer (pH 8.0) containing 0.2 mg/ml lysozyme. The resulting suspension was sonicated according to usual manner, and centrifuged to collect a precipitate containing the produced TNF mutant protein. The resulting precipitate was treated three times in a manner of admixing with TES buffer containing 1 (w/w) % Triton X-100, removed from supernatant by centrifuging, admixed with 50 mM Tris-HCl (pH 7.0) containing 8 M guanidine hydrochloride and 50 mM dithiothreitol, with stirring for 16 hours at ambient temperature under shielded condition, and centrifuged to collect a supernatant. The resulting supernatant was gently admixed with 100 time volumes of a aqueous solution containing 1 M Tris, 0.9 (w/v) % sodium chloride, 0.4 M L-arginine chloride, 2.5 mM reduced glutathione, 0.5 mM oxidized glutathione and 0.05 (w/v) % Tween 20, and kept at 4° C. for 16 hours.

[2] = biological target: T2, TNF-R1 (a protein having the amino acid sequence, Accession No. M58286 registered at GENBANK) (UniProt P19438 30-211, limits assumed); experiment: SPR (BIACORE 2000), receptor on sensor tip; grade 1 = 0.001 to 0.1 time that of recombinant TNF-α
T2 construct: also called TNF receptor having a molecular weight of 55 kilo daltons
T2 sequence (looked up): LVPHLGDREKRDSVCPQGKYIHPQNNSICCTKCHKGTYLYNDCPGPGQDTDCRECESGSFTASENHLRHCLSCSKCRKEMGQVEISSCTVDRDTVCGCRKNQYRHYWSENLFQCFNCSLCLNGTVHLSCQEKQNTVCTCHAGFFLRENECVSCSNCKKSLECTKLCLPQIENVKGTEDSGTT
From the text: as §1

[3] = biological target: T1, TNF-R2 (a protein having the amino acid …); experiment: SPR (BIACORE 2000), receptor on sensor tip; grade 0 = weakened to 0.001 or less of that of recombinant TNF-α
From the text: as §1

[4] = biological target: T2, TNF-R1 (a protein having the amino acid …); experiment: SPR (BIACORE 2000), receptor on sensor tip; grade 4 = two times or more that of recombinant TNF-α
From the text: as §1

TNF-R1 on L-M cells = biological target: T3, TNF-R1 on L-M cells (mouse, UniProt P25118 30-454); experiment: cell-based or functional assay
T3 sequence (looked up): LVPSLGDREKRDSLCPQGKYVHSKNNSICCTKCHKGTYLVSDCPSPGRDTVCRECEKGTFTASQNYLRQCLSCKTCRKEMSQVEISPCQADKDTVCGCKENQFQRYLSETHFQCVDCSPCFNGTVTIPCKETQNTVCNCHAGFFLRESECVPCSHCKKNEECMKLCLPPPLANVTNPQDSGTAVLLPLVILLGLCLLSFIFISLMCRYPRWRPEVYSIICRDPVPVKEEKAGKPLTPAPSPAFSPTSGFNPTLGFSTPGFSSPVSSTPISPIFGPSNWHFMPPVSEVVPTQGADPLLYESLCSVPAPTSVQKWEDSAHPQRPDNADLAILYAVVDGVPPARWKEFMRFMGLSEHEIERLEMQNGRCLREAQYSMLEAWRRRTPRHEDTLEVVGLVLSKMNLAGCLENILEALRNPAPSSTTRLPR

TNF-R1 on HEp-2 cells = biological target: T4, TNF-R1 on HEp-2 cells (human, UniProt P19438 30-455); experiment: cell-based or functional assay
T4 sequence (looked up): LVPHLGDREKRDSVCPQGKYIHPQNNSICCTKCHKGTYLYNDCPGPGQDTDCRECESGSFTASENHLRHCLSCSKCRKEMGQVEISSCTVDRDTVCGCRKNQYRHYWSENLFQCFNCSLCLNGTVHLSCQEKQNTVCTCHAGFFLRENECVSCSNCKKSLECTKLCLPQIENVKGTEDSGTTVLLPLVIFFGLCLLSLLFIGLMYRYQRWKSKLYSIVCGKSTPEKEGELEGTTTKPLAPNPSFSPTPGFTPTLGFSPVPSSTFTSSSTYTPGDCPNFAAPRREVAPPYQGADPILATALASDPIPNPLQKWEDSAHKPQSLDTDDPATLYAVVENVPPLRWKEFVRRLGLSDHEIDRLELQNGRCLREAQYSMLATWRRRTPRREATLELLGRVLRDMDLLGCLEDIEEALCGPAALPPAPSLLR

[5] = biological target: T2, TNF-R1 (a protein having the amino acid …); experiment: SPR (BIACORE 2000), receptor on sensor tip; grade 0 = weakened to 0.001 or less of that of recombinant TNF-α
From the text: as §1

[6] = biological target: T1, TNF-R2 (a protein having the amino acid …); experiment: SPR (BIACORE 2000), receptor on sensor tip; grade 3 = 0.5 to 2 times that of recombinant TNF-α
From the text: as §1

[7] = biological target: T2, TNF-R1 (a protein having the amino acid …); experiment: SPR (BIACORE 2000), receptor on sensor tip; grade 2 = 0.5 to 0.1 time that of recombinant TNF-α
From the text: as §1

binding affinity relative to recombinant TNF-α [1]: ≥ 2 fold
binding affinity relative to recombinant TNF-α [2]: 0.001 to 0.1 fold
B1: TNF mutant protein of clone No. 10 (ligand)
chain: VRSSSRTPSDMPVAHVVANPQAEGQLQWLNRRANALLANGVELRDNQLVVPSEGLYLIYSQVLFSGQGCPSTHVLLTHTISRIAVSYQTPVNLLSAIRSPCQRETPEGAEANPWYEPIYLGGVFQLEPGDRLSAEINRPDYLDFKDTGQVYFGIIAL
notes: Mutant of lysine-replaced TNF, made in E. coli

binding affinity relative to recombinant TNF-α (grade) [3]: ≤ 0.001 times that of recombinant TNF-α
binding affinity relative to recombinant TNF-α [4]: ≥ 2 fold
B2: TNF mutant protein of clone No. 35 (ligand)
chain: B1 chain with A84T, V85P, S86A, Y87I, Q88N, T89R, K145A, D146E, T147S
notes: Mutant of lysine-replaced TNF, made in E. coli; also called TNF antagonist of clone No. 35
Viability (%) of L-M cells, 10 ng/ml TNF-α + 1,000 ng/ml TNF antagonist (17 without antagonist) (TNF-R1 on L-M cells): 43%
Viability (%) of L-M cells, 10 ng/ml TNF-α + 10,000 ng/ml TNF antagonist (17 without antagonist) (TNF-R1 on L-M cells): 58%
Viability (%) of L-M cells, 10 ng/ml TNF-α + 100,000 ng/ml TNF antagonist (17 without antagonist) (TNF-R1 on L-M cells): 61%
Viability (%) of L-M cells, 10 ng/ml TNF-α + 500,000 ng/ml TNF antagonist (17 without antagonist) (TNF-R1 on L-M cells): 64%
Viability (%) of HEp-2 cells, 10 ng/ml TNF-α + 1,000 ng/ml TNF antagonist (9 without antagonist) (TNF-R1 on HEp-2 cells): 10%
Viability (%) of HEp-2 cells, 10 ng/ml TNF-α + 10,000 ng/ml TNF antagonist (9 without antagonist) (TNF-R1 on HEp-2 cells): 18%
Viability (%) of HEp-2 cells, 10 ng/ml TNF-α + 100,000 ng/ml TNF antagonist (9 without antagonist) (TNF-R1 on HEp-2 cells): 86%
Viability (%) of HEp-2 cells, 10 ng/ml TNF-α + 500,000 ng/ml TNF antagonist (9 without antagonist) (TNF-R1 on HEp-2 cells): 103%

binding affinity relative to recombinant TNF-α (grade) [5]: ≤ 0.001 times that of recombinant TNF-α
binding affinity relative to recombinant TNF-α [6]: 0.5 to 2 fold
B3: TNF mutant protein of clone No. 11 (ligand)
chain: B1 chain with K145R, D146T, T147D
notes: as for B1

binding affinity relative to recombinant TNF-α [6]: 0.5 to 2 fold
binding affinity relative to recombinant TNF-α [2]: 0.001 to 0.1 fold
B4: TNF mutant protein of clone No. 12 (ligand)
chain: B1 chain with K145R, D146E
notes: as for B1

binding affinity relative to recombinant TNF-α [7]: 0.1 to 0.5 fold
binding affinity relative to recombinant TNF-α [1]: ≥ 2 fold
B5: TNF mutant protein of clone No. 13 (ligand)
chain: B1 chain with K145A, T147D
notes: as for B1
